# Assay results: the RNAGym collection of RNA variant scans (doi:10.7554/elife.80360)
# B1: Hairpin Ribozyme (parent)
# chain: GUCCUCUUUCACGUGCGCGUGAAAGAGAGAAGUGAACCAGAGAAACACACGUUGUGGUAUAUUACCUGGUA
# Variants of: B1
# Test: self-cleavage, relative activity (ratio to wild type); higher = more cleavage; co-transcriptional
row,Variant,self-cleavage
1,GUCCUCUUUCACGUGCGCGUGAAAAAGAGAAGUGAACCAGAGAAACACACGUUGUGGUUUAUUACCUGGUA [G25A A59U],0.21
2,GUCCUCUUUCACGUGCGCGUGAAAAAGAGAAGUGAACCAGAGAAACACUCGUUGUGGUAUAUUACCUGGUA [G25A A49U],0.209
3,GUCCUCUUUCACGUGCGCGUGAAAAAGAGAAGUGAACCAGAGAAACACACGUUGUGGUAUAUUAGCUGGUA [G25A C65G],0.215
4,GUCCUCUUUCACGUGCGCGUGAAAAAGAGAAGUGAACCAGAGAAACACACGUUGUGGUAUAUUAACUGGUA [G25A C65A],0.615
5,GUCCUCUUUCACGUGCGCGUGAAUGAGAGAAGUGAACCAGAGAAACACACGUUGUGGUAUAUUACCUGGUU [A24U A71U],0.783
6,GUCCUCUUUCACGUGCGCGUGAAAAAGAGAAGUGAACCAGAGAAACCCACGUUGUGGUAUAUUACCUGGUA [G25A A47C],0.107
7,GUCCUCUUUCACGUGCGCGUGAAAAAGAGAAGUGAACCAGAGAAACACAGGUUGUGGUAUAUUACCUGGUA [G25A C50G],0.14
8,GUCCUCUUUCACGUGCGCGUGAAUGAGAGAAGUGAACCAGAGAAACACACGUUGUCGUAUAUUACCUGGUA [A24U G56C],0.14
9,GUCCUCUUUCACGUGCGCGUGAAUGAGAGAAGUGAACCAGAGAAACACACGUUGUGGUAUAGUACCUGGUA [A24U U62G],0.131
10,GUCCUCUUUCACGUGCGCGUGAAUGAGAGAAGUGAACCACAGAAACACACGUUGUGGUAUAUUACCUGGUA [A24U G40C],0.116
11,GUCCUCUUUCACGUGCGCGUGAAGGAGAGAAGUGAACCAGAGAAACACACGUUGAGGUAUAUUACCUGGUA [A24G U55A],0.272
12,GUCCUCUUUCACGUGCGCGUGAAGGAGAGAAGUGAACCAGAGAAACACACGUUGCGGUAUAUUACCUGGUA [A24G U55C],0.196
13,GUCCUCUUUCACGUGCGCGUGAAAAAGAGAAGUGAUCCAGAGAAACACACGUUGUGGUAUAUUACCUGGUA [G25A A36U],0.363
14,GUCCUCUUUCACGUGCGCGUGAAGGAGAGAAGUGAACCAGAGAAACACACGUUGUGGUAUAUAACCUGGUA [A24G U63A],0.231
15,GUCCUCUUUCACGUGCGCGUGAAUGAAAGAAGUGAACCAGAGAAACACACGUUGUGGUAUAUUACCUGGUA [A24U G27A],0.334
16,GUCCUCUUUCACGUGCGCGUGAAGGAGAGAAGUGAACCAGAGAAACACACGUAGUGGUAUAUUACCUGGUA [A24G U53A],0.822
17,GUCCUCUUUCACGUGCGCGUGAAUAAGAGAAGUGAACCAGAGAAACACACGUUGUGGUAUAUUACCUGGUA [A24U G25A],0.219
18,GUCCUCUUUCACGUGCGCGUGAAUCAGAGAAGUGAACCAGAGAAACACACGUUGUGGUAUAUUACCUGGUA [A24U G25C],0.385
19,GUCCUCUUUCACGUGCGCGUGAAUGAGAGAAGUGAACCAGAGAAACACACGUUGUGGUAUAUUACCUGCUA [A24U G69C],0.271

row,Variant,self-cleavage
1,GUCCUCUUUCACGUGCGCGUGAAAAAGAGAAGUGAACCAGAGAAUCACACGUUGUGGUAUAUUACCUGGUA [G25A A45U],0.111
2,GUCCUCUUUCACGUGCGCGUGAAUGAGAGAAGUGAACCAGAGAAACACACGUUGUGGUAUAUUACCUGGUA [A24U],0.868
3,GUCCUCUUUCACGUGCGCGUGAAUGAGAGAAGUGAACCAGAGAAACACUCGUUGUGGUAUAUUACCUGGUA [A24U A49U],0.216
4,GUCCUCUUUCACGUGCGCGUGAAUGAGAGAAGUGAACCAGAGAAACACCCGUUGUGGUAUAUUACCUGGUA [A24U A49C],0.104
5,GUCCUCUUUCACGUGCGCGUGAAUGAGAGAAUUGAACCAGAGAAACACACGUUGUGGUAUAUUACCUGGUA [A24U G32U],0.128
6,GUCCUCUUUCACGUGCGCGUGAAUGAGAGAAGUGAACCAGAGUAACACACGUUGUGGUAUAUUACCUGGUA [A24U A43U],0.121
7,GUCCUCUUUCACGUGCGCGUGAAUGAGAGAAGUGAACCAGAGAAACCCACGUUGUGGUAUAUUACCUGGUA [A24U A47C],0.3
8,GUCCUCUUUCACGUGCGCGUGAAUGAGAGAAGUGAACCAGAGAAACGCACGUUGUGGUAUAUUACCUGGUA [A24U A47G],0.164
9,GUCCUCUUUCACGUGCGCGUGAAUGAGAGAAGUGAACCAGAGAAACACACGAUGUGGUAUAUUACCUGGUA [A24U U52A],0.925
10,GUCCUCUUUCACGUGCGCGUGAAUGAGAGAAGUGAACCAGAGAAACACACGGUGUGGUAUAUUACCUGGUA [A24U U52G],0.744
11,GUCCUCUUUCACGUGCGCGUGAAUGAGAGAAGUGAACCAGAGAAUCACACGUUGUGGUAUAUUACCUGGUA [A24U A45U],0.159
12,GUCCUCUUUCACGUGCGCGUGAAGGAGAGAAGUGAACCAGAGAAACACACGAUGUGGUAUAUUACCUGGUA [A24G U52A],1.12
13,GUCCUCUUUCACGUGCGCGUGAAUGUGAGAAGUGAACCAGAGAAACACACGUUGUGGUAUAUUACCUGGUA [A24U A26U],0.443
14,GUCCUCUUUCACGUGCGCGUGAAUGGGAGAAGUGAACCAGAGAAACACACGUUGUGGUAUAUUACCUGGUA [A24U A26G],0.79
15,GUCCUCUUUCACGUGCGCGUGAAUGCGAGAAGUGAACCAGAGAAACACACGUUGUGGUAUAUUACCUGGUA [A24U A26C],0.575
16,GUCCUCUUUCACGUGCGCGUGAAAAAGAGAAGUGAACCAGAGAAACAGACGUUGUGGUAUAUUACCUGGUA [G25A C48G],0.0903
17,GUCCUCUUUCACGUGCGCGUGAAGGAGAGAAGUGAACCAGAGAAACACACGUUGUGGUAUAUUACCUGGAA [A24G U70A],0.746
18,GUCCUCUUUCACGUGCGCGUGAAUGAGAGAAGUGAGCCAGAGAAACACACGUUGUGGUAUAUUACCUGGUA [A24U A36G],0.943
19,GUCCUCUUUCACGUGCGCGUGAAGGAGAGAAGUGAACCAGAGAAACACACGUUGUGGUACAUUACCUGGUA [A24G U60C],0.936
